The target in the series is T1, His-OpaR (Vibrio parahaemolyticus BB22OP) (UniProt Q79YV4).
T1 sequence: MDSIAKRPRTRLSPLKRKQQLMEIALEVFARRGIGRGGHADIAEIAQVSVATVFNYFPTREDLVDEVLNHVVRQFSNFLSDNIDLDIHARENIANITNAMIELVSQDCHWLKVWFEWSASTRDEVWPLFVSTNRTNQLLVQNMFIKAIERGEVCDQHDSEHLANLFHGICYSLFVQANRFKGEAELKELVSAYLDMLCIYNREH
Nature of the series: EMSA. To be noted: 10 mM Tris-HCl pH 7.5, 50 mM NaCl, 1 mM MgCl2, 0.5 mM EDTA, 0.5 mM DTT, 0.05 mg/ml poly d(I-C), 150 ug/ml BSA; temperature not stated. For orientation: A gel shift assay detects complexes by their altered migration in electrophoresis.

On to “CTGTAAGTGAAGAATAATACCGAATGAAGTTTAAAGGCGCTCGAATGAGCGCCTTTTTTATTTGTCATGGAAAACGATAAGAACGAATATGCCGAACATTGAGATCATTCGCTTTAACCACTT (double strand) [araC family (VPBB_A0554) promoter]”, for which the binding result is on record as “no binding”.

The record behind these values is PMC4406679.
